The results in this text go back to publication PMC6570425, “Regulation of GLI1 by cis DNA elements and epigenetic marks”.

The target of one data set is GLI2 (aa 84-355) (human, UniProt P10070-1 84-355). The experiment in a line: EMSA; Roche DIG gel shift kit binding buffer (1X from 5X; composition, salt and pH not given), 155 fmol probe, 20 pmol competitor, 4 C 20 min, 5% TBE gel. The note with it: protein: recombinant; tags: 6xHis; label: digoxigenin (or 32P); blunt.
Another data set concerns the target GLI1 (aa 211-1106) (human, UniProt P08151 211-1106). Described as above. To be noted: protein: recombinant; label: digoxigenin (or 32P); blunt.

Sequence of GLI1 (aa 211-1106) (P08151 211-1106): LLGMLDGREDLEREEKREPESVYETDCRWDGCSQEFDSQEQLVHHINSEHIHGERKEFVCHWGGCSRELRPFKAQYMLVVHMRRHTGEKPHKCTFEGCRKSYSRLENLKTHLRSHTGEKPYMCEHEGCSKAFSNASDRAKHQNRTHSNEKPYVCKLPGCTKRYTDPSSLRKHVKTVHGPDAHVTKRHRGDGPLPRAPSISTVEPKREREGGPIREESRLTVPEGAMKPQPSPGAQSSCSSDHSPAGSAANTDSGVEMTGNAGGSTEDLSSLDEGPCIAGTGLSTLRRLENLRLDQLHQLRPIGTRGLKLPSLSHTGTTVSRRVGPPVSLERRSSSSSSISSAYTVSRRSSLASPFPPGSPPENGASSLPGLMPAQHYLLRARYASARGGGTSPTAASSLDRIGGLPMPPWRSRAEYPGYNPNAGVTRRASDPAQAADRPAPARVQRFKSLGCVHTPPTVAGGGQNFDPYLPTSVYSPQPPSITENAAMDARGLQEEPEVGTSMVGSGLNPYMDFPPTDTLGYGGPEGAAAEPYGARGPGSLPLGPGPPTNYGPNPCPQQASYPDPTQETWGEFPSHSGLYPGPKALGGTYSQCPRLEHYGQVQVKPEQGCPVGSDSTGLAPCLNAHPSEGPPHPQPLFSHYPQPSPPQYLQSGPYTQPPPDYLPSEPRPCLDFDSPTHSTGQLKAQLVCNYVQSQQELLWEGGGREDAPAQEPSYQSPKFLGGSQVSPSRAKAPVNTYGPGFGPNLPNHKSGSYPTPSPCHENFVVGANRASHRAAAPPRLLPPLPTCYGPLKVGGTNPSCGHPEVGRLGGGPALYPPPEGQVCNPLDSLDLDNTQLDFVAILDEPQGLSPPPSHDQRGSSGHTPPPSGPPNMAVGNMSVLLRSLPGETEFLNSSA
Sequence of GLI2 (aa 84-355) (P10070 412-683): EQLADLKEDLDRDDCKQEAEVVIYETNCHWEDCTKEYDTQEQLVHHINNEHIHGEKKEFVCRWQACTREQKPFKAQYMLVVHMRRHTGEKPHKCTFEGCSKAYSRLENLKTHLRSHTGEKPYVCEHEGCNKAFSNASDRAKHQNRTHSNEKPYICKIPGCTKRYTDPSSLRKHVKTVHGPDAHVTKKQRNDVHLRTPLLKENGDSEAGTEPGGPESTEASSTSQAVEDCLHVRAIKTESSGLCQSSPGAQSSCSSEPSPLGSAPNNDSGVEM

B1: GBS #4 (dsDNA)
DNA 1: AGCATCCCGGGATCACCCACCGCGCCGGC
DNA 2: GCCGGCGCGGTGGGTGATCCCGGGATGCT
B1: the binding result with GLI2 (aa 84-355) and with GLI1 (aa 211-1106) was “binds” throughout.

B2: GBS #1 (dsDNA)
DNA 1: CTCTGGCTCAGACCACCCTGCCTGCCCTT
DNA 2: AAGGGCAGGCAGGGTGGTCTGAGCCAGAG
Turning to B2, the binding result with GLI2 (aa 84-355) and with GLI1 (aa 211-1106) was “binds” throughout.

B3: GBS #6 (dsDNA)
DNA 1: TCTACACACAGACCACACAGGCAAAGCTC
DNA 2: GAGCTTTGCCTGTGTGGTCTGTGTGTAGA
As for B3, the binding result with GLI2 (aa 84-355) and in the data set with GLI1 (aa 211-1106) was “binds” throughout.

B4: GBS #5 (dsDNA)
DNA 1: AAGGTCGAGTTGGGAGGTCTTGGATGCGG
DNA 2: CCGCATCCAAGACCTCCCAACTCGACCTT
For B4, the binding result with GLI2 (aa 84-355) and in the data set with GLI1 (aa 211-1106) was “binds” throughout.

B5: GBS #3 (dsDNA)
DNA 1: AGGGGAGATATGGGTGGGCTGTGGAACGC
DNA 2: GCGTTCCACAGCCCACCCATATCTCCCCT
In the case of B5, the binding result with GLI2 (aa 84-355) and with GLI1 (aa 211-1106) was “binds” each time.

B6: GBS #2 (dsDNA)
DNA 1: GGCGGCGACTTGGGTGGGCCGAGGAGGCA
DNA 2: TGCCTCCTCGGCCCACCCAAGTCGCCGCC
In the case of B6, the binding result in the data set with GLI2 (aa 84-355) and with GLI1 (aa 211-1106) was “binds” each time.
